The target of data set [1] is Skl endolysin (N-acetylmuramoyl-L-alanine amidase of the Streptococcus mitis prophage φSK137), wild type (Streptococcus mitis prophage φSK137). Put plainly: SAXS; 4°C, 20 mM PB (Pal) or 50 mM Tris–HCl (Skl) pH 8.0, 2–8 mg/ml protein extrapolated to infinite dilution, saturating choline.
Data set [2] shares this target. The data set is described as follows: AUC; sedimentation equilibrium, 20°C, single-species model; choline-saturated.
The target is the same in data set [3]. Put plainly: AUC; sedimentation velocity, 20°C, PB pH 6.5, under the conditions of the CD titration; choline saturating the lower affinity sites.
In data set [4] the target is Skl Y264H mutant (Streptococcus mitis prophage φSK137). The data set is described as follows: AUC; sedimentation equilibrium, 20°C, 50 mM Tris–HCl pH 8.0, increasing choline.
For data set [5] the target is unchanged. The data set is described as follows: AUC; sedimentation velocity, 20°C, PB pH 6.5, under the conditions of the CD titration; choline saturating the lower affinity sites.
For data set [6], the target named is T1, Pal (Streptococcus phage Dp-1, UniProt O03979).
T1 construct: full-length, untagged, E. coli pT7-7 (pPal, amplified from pMSP11); DEAE-cellulose purified with choline elution, dialysed
T1 sequence (O03979 1-296): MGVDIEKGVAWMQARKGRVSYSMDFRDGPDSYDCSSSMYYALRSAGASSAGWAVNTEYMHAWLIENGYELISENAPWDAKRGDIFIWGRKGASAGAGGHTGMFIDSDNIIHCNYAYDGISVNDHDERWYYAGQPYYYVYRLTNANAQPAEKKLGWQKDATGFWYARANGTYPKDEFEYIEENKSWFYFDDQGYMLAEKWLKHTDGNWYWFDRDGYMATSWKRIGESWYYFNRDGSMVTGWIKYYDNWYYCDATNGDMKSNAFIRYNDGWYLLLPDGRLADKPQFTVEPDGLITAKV
The data set is described as follows: SAXS of choline-bound dimer. Format: binding. The following applies: 20 mM PB pH 8.0, 4 °C; saturating choline.

Data set [7] deals with the molecule itself. Put plainly: SAXS; 4°C, 20 mM PB (Pal) or 50 mM Tris–HCl (Skl) pH 8.0, 2–8 mg/ml protein extrapolated to infinite dilution, saturating choline.
Data set [8] concerns the molecule itself. The data set is described as follows: non-reducing SDS-PAGE (intermolecular disulfide); 0.36 mg/ml protein pretreated with 40 mM iodoacetamide, then 1% SDS, sample buffer without β-mercaptoethanol (SB), 12% gel, Coomassie stain.

Residue numbers refer to the chain shown, from its start. In names and notes the source's numbering stands.

Turning to “Skl endolysin (N-acetylmuramoyl-L-alanine amidase of the Streptococcus mitis prophage φSK137), wild type (enzyme)”, the stoichiometry N in data set [1], in data set [2] and in data set [3] was 2 in each case. In data set [4], Skl Y264H mutant (enzyme) gave a stoichiometry N of 2. The percent remaining as monomer in data set [5] was 50%. In the case of `C[N+](C)(C)CCO` [choline], the “SAXS of choline-bound dimer” value in data set [6] is reported as “Pal dimer in complex with choline”.

B1: Pal endolysin (N-acetylmuramoyl-L-alanine amidase of the pneumococcal bacteriophage Dp-1), wild type (enzyme, UniProt O03979 1-296, looked up)
chain: T1 sequence (O03979 1-296)
notes: Pal-coding region amplified from pMSP11; No tag; 1 μM equals 0.0345 mg/ml. 'Full length' rests on 'Pal-coding region was PCR amplified'; also called Pal WT; Pal NAM-amidase; source: E. coli BL21(DE3) or C41(DE3), pT7-7 derivative (pPal), purified (DEAE-cellulose, eluted with choline)
On to B1, for which the “stoichiometry N” value in data set [7] is 2.

B2: Pal C112S mutant (enzyme, pneumococcal bacteriophage Dp-1, UniProt O03979 1-296, looked up)
chain: T1 sequence (O03979 1-296) with C112S
modifications: free thiols blocked with iodoacetamide before SDS-PAGE
notes: Pal, NAM-amidase of the pneumococcal Dp-1 bacteriophage, with Cys112 changed to serine; source: E. coli BL21(DE3) or C41(DE3), pT7-7 derivative, purified (DEAE-cellulose, eluted with choline)
As for B2, the binding result in data set [8] is listed as “binds”.

B3: Pal C112S–C250S double mutant (enzyme, pneumococcal bacteriophage Dp-1, UniProt O03979 1-296, looked up)
chain: T1 sequence (O03979 1-296) with C112S, C250S
modifications: free thiols blocked with iodoacetamide before SDS-PAGE
notes: Pal, NAM-amidase of the pneumococcal Dp-1 bacteriophage, with Cys112 and Cys250 changed to serine; source: E. coli BL21(DE3) or C41(DE3), pT7-7 derivative (made from pPal-C250S), purified (DEAE-cellulose, eluted with choline)
In the case of B3, the binding result in data set [8] is “binds”.

These data come from publication PMC8586454, “Structural and Functional Insights Into Skl and Pal Endolysins, Two Cysteine-Amidases With Anti-pneumococcal Activity. Dithiothreitol (DTT) Effect on Lytic Activity” (Frontiers in Microbiology, 2021).
